The results in this text go back to US20240084027A1 (BEIJING MABWORKS, published 2024).

For assay [1], the target named is T1, human PD-L1 on HEK293A/human PD-L1 cells (human, UniProt Q9NZQ7 19-290). Put plainly: FACS on HEK293A/human PD-L1 cells. The protocol: (§1) The bispecific antibodies as prepared above were tested for their binding capability to cell surface human, monkey and mouse CD40 proteins by FACS, using the HEK293A cells prepared in Example 1 that stably expressed human, monkey or mouse CD40. Briefly, a 96-well plate was seeded with 10⁵ HEK293A cells in 50 μl PBS, and then added with 100 μl serially diluted anti-CD40 antibody 714VH2VL2 and the bispecific antibodies of the disclosure (starting concentration at 40 μg/ml). After incubation at 4° C. for 1 h, the plate was washed by PBST for 3 times. The plate was added with 1:500 diluted APC-goat anti-mouse IgG (Cat #:405308, BioLegen, USA), incubated at 4° for 1 h, washed with PBS for 3 times, and subjected to fluorescence measurement in a FACS machine (BD).
(§2) Following the protocols in Example 4 and Example 5, the bi- or multi-specific antibodies of the disclosure were tested for their binding capability to human PD-L1 and human CD40 proteins by FACS using the HEK293A cells prepared in Example 1 that stably expressed human PD-L1 or human CD40.

Assay [2] addresses T1, human PD-L1 on HEK293A/human PD-L1 cells. Description: FACS on HEK293A/human PD-L1 cells. The protocol: as §1, §2
This is another data set of the same source.

For assay [3] the target is unchanged. Description: FACS blocking assay on HEK293A/human PD-L1 cells; blocked ligand PD-1-Fc. The procedure:
The bispecific antibodies were tested for their blocking activity on PD-1-PD-L1 binding by FACS using the HEK293A cells stably expressing human PD-L1 molecules as prepared in Example 1. Briefly, a 96-well plate was seeded with 10⁵ HEK293A/human PD-L1 cells in 100 μl cell culture medium, and then added with 50 μl serially diluted anti-PD-L1 antibody 56E5VH5VL4 or MBS307-3 molecules. After incubation at 4° C. for 1 h. the plate was washed with PBST for 3 times, added with 100 μl 200 μg/ml PD-1-Fc fusion proteins (Cat #:10377-10211, Sino Biological, CN), incubated at 4° C. for 1 h, washed with PBST for 3 times, and added with 1:500 diluted PE-goat anti-human IgG (Cat #:PAI-86078, Thermofisher, USA). After incubation at 4° C. for 1 h, the plate was washed with PBST for 3 times and measured for fluorescence using a FACS machine (BD).
Following the protocol of Example 7, the bi- or multi-specific antibodies were tested for their capability to block PD-1-PD-L1 binding by FACS, using the HEK293A cells prepared in Example 1 that stably expressed human PD-L1 molecules.

Assay [4] concerns the target T2, human CD40 on HEK293A/human CD40 cells (human, UniProt P25942 21-277). Description: cell-based or functional assay.
In assay [5] the target is T2, human CD40 on HEK293A/human CD40 cells. Description: cell-based or functional assay. This is another data set of the same source.
The target is the same in assay [6]. Put plainly: FACS on HEK293A/human CD40 cells. The procedure:
as §1, §2

Assay [7] has the same target. Description: FACS on HEK293A/human CD40 cells. The protocol: as §1, §2
The source holds these as a separate data set.

Assay [8] has the same target. Description: FACS on HEK293A/human CD40 cells. The protocol:
as §1, §2
The source holds these as a separate data set.

The target in a further assay is T3, human CD40-his protein (human, UniProt P25942 21-193).
T3 construct: Bought protein; also called human CD40 protein; CD40 molecules; not shown: his tag
Description: SPR (BIAcore 8K), human CD40-his coupled to CM5 chip, antibody injected. The source says: (§3) Using BIAcore™ 8K instrument (GE Life Sciences, US), the binding affinity of the bi- or multi-specific antibodies to human CD40 and PD-L1 was quantitatively measured. Briefly, 100-200 response units (RU) of human CD40-his protein (Cat #:10774-1108H, Sino Biological, CN) or human PD-L1-his protein (Cat #:10084-H08H, Sino Biological, CN) were coupled to CM5 biosensor chips (Cat #:BR-1005-30, GE Life Sciences. USA). The un-reacted groups were then blocked with 1 M ethanolamine. Serially diluted antibodies at concentrations ranging from 0.3 μM to 10 μM were injected into the SPR running buffer (HBS-EP buffer, pH7.4, Cat #:BR-1006-69, GE Life Sciences, USA) at 30 μL/min. The binding affinity was calculated with the RUs of blank controls subtracted, and the association rate (kₐ) and dissociation rate (kd) were determined using the one-to-one Langmuir binding model (BIA Evaluation Software, GE Life Sciences, USA). The equilibrium dissociation constant KD was calculated as the kd/kₐ ratio.
A general note: Surface plasmon resonance follows binding to a sensor surface in real time, without labels.

The next assay deals with T4, human PD-L1-his protein (human, UniProt Q9NZQ7 19-238).
T4 construct: extracellular domain; also called human PD-L1 (ECD)-his; human PD-L1 protein; not shown: his tag
Put plainly: SPR (BIAcore 8K), human PD-L1-his coupled to CM5 chip, antibody injected.
Source text: as §3

In assay [9] the target is T1, human PD-L1 on HEK293A/human PD-L1 cells. Description: FACS on HEK293A/human PD-L1 cells. The protocol: as §1, §2
The source holds these as a separate data set.

Read-outs that look alike come from different tables or passages of the source.

T1 sequence (Q9NZQ7 19-290 limits assumed): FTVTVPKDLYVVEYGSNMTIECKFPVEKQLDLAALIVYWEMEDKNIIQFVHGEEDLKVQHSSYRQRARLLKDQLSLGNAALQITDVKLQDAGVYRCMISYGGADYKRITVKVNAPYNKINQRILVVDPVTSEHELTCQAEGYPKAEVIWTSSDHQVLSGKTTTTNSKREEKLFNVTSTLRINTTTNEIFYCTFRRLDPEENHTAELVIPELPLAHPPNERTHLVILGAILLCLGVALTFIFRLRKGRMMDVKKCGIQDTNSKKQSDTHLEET
T4 sequence (Q9NZQ7 19-238): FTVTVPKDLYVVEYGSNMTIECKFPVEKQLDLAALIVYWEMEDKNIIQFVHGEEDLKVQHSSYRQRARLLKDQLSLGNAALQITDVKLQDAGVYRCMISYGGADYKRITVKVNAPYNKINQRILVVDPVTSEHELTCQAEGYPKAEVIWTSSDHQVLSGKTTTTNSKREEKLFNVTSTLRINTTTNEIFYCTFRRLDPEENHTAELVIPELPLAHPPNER

B1: anti-PD-L1 antibody 3C2VH6VL5 (antibody, V domains shown)
VH: QVQLVQSGAEVKKPGASVKVSCKASGYTFTDYHVNWVRQAPGQGLEWIGWIFPGSGRTFYTDKFKGRVTMTVDTSTSTVYMELSSLRSEDTAVYYCATDYGTSGYGLVYWGQGTTVTVSS
VL: DIQMTQSPSSLSASVGDRVTITCKASDRINNWLAWYQQKPGKAPKLLISGATSLETGVPSRFSGSGSGTDFTLTISSLQPEDIATYYCQQYWNIPFTFGQGTKVEIK
notes: also called 3C2VH46VL5 [sic]
For orientation: EC50 (read off the curve) means the concentration needed to bring the measured effect to its halfway point. A lower EC50 (read off the curve) goes with an effect from little substance. As for B1, the “EC50 (read off the curve)” value in assay [1] was ~0.2 µg/mL; in assay [2] it was ~0.1 µg/mL. The “IC50 (read off the curve)” value in [3] was ~0.5 µg/mL.

B2: MBS307-10 (bispecific antibody, human IgG1, kappa, L234A L235A)
heavy 1: QVQLQESGPGLVKPSDTLSLTCAVSGYSITTNYYWNWIRQPPGKGLEWMGYIKYDGSNNYNPSLKNRITISVDTSKNQFSLKLSSVTAVDTAVYYCARLDYWGQGTLVTVSSASTKGPSVFPLAPSSKSTSGGTAALGCLVKDYFPEPVTVSWNSGALTSGVHTFPAVLQSSGLYSLSSVVTVPSSSLGTQTYICNVNHKPSNTKVDKKVEPKSCDKTHTCPPCPAPEAAGGPSVFLFPPKPKDTLMISRTPEVTCVVVDVSHEDPEVKFNWYVDGVEVHNAKTKPREEQYNSTYRVVSVLTVLHQDWLNGKEYKCKVSNKALPAPIEKTISKAKGQPREPQVYTLPPSREEMTKNQVSLWCLVKGFYPSDIAVEWESNGQPENNYKTTPPVLDSDGSFFLYSKLTVDKSRWQQGNVFSCSVMHEALHNHYTQKSLSLSPGK
heavy 2: QVQLQESGPGLVKPSDTLSLTCAVSGYSITTNYYWNWIRQPPGKGLEWMGYIKYDGSNNYNPSLKNRITISVDTSKNQFSLKLSSVTAVDTAVYYCARLDYWGQGTLVTVSSASTKGPSVFPLAPSSKSTSGGTAALGCLVKDYFPEPVTVSWNSGALTSGVHTFPAVLQSSGLYSLSSVVTVPSSSLGTQTYICNVNHKPSNTKVDKKVEPKSCDKTHTCPPCPAPEAAGGPSVFLFPPKPKDTLMISRTPEVTCVVVDVSHEDPEVKFNWYVDGVEVHNAKTKPREEQYNSTYRVVSVLTVLHQDWLNGKEYKCKVSNKALPAPIEKTISKAKGQPREPQVYTLPPSREEMTKNQVSLSCAVKGFYPSDIAVEWESNGQPENNYKTTPPVLDSDGSFFLVSKLTVDKSRWQQGNVFSCSVMHEALHNHYTQKSLSLSPGGGGGQVQLVQSGAEVKKPGASVKVSCKASGYTFTDYHVNWVRQAPGQGLEWIGWIFPGSGRTFYTDKFKGRVTMTVDTSTSTVYMELSSLRSEDTAVYYCATDYGTSGYGLVYWGQGTTVTVSSGGGGSGGGGSGGGGSGGGGSDIQMTQSPSSLSASVGDRVTITCKASDRINNWLAWYQQKPGKAPKLLISGATSLETGVPSRFSGSGSGTDFTLTISSLQPEDEATYYCQQYWNIPFTFGQGTKLTAK
light: DVVLTQSPLSLPVTLGQPASISCRSSQSLENSNGNTFLNWFQQRPGQSPRLLIYKVSNRFSGVPDRFSGSGSGTDFTLKISRVEAEDVGVYYCLQVTHVPFTFGQGTKLEIKRTVAAPSVFIFPPSDEQLKSGTASVVCLLNNFYPREAKVQWKVDNALQSGNSQESVTEQDSKDSTYSLSSTLTLSKADYEKHKVYACEVTHQGLSSPVTKSFNRGEC
notes: Asymmetric: knob chain without scFv, hole chain with the 3C2VH6VL5 scFv; also called MBS307-10-1 + MBS307-10-2
The Kd is the concentration at which binding is half-saturated. Low readings indicate a tighter complex, high ones a looser complex. In the case of B2, the “EC50 (read off the curve); HEK-Blue/CD40 reporter, OD630, plate coated with human PD-L1-his” value was ~0.05 µg/mL in [4] and ~0.03 µg/mL in assay [5]. In addition, the “EC50 (read off the curve)” value in [6] is ~0.04 µg/mL; in [7], ~0.07 µg/mL; in assay [8], ~0.02 µg/mL. For the same molecule, the figures for the Kd with human CD40-his protein and with human PD-L1-his protein were 2.72 nM and 17.7 nM, respectively.

B3: MBS307-8 (bispecific antibody, human IgG1, kappa, L234A L235A)
heavy 1: QVQLQESGPGLVKPSDTLSLTCAVSGYSITTNYYWNWIRQPPGKGLEWMGYIKYDGSNNYNPSLKNRITISVDTSKNQFSLKLSSVTAVDTAVYYCARLDYWGQGTLVTVSSASTKGPSVFPLAPSSKSTSGGTAALGCLVKDYFPEPVTVSWNSGALTSGVHTFPAVLQSSGLYSLSSVVTVPSSSLGTQTYICNVNHKPSNTKVDKKVEPKSCDKTHTCPPCPAPEAAGGPSVFLFPPKPKDTLMISRTPEVTCVVVDVSHEDPEVKFNWYVDGVEVHNAKTKPREEQYNSTYRVVSVLTVLHQDWLNGKEYKCKVSNKALPAPIEKTISKAKGQPREPQVYTLPPSREEMTKNQVSLWCLVKGFYPSDIAVEWESNGQPENNYKTTPPVLDSDGSFFLYSKLTVDKSRWQQGNVFSCSVMHEALHNHYTQKSLSLSPGSGGGGSGGGGSQVQLVQSGAEVKKPGASVKVSCKASGYTFTDYHVNWVRQAPGQGLEWIGWIFPGSGRTFYTDKFKGRVTMTVDTSTSTVYMELSSLRSEDTAVYYCATDYGTSGYGLVYWGQGTTVTVSSGGGGSGGGGSGGGGSGGGGSDIQMTQSPSSLSASVGDRVTITCKASDRINNWLAWYQQKPGKAPKLLISGATSLETGVPSRFSGSGSGTDFTLTISSLQPEDEATYYCQQYWNIPFTFGQGTKLTAK
heavy 2: QVQLQESGPGLVKPSDTLSLTCAVSGYSITTNYYWNWIRQPPGKGLEWMGYIKYDGSNNYNPSLKNRITISVDTSKNQFSLKLSSVTAVDTAVYYCARLDYWGQGTLVTVSSASTKGPSVFPLAPSSKSTSGGTAALGCLVKDYFPEPVTVSWNSGALTSGVHTFPAVLQSSGLYSLSSVVTVPSSSLGTQTYICNVNHKPSNTKVDKKVEPKSCDKTHTCPPCPAPEAAGGPSVFLFPPKPKDTLMISRTPEVTCVVVDVSHEDPEVKFNWYVDGVEVHNAKTKPREEQYNSTYRVVSVLTVLHQDWLNGKEYKCKVSNKALPAPIEKTISKAKGQPREPQVYTLPPSREEMTKNQVSLSCAVKGFYPSDIAVEWESNGQPENNYKTTPPVLDSDGSFFLVSKLTVDKSRWQQGNVFSCSVMHEALHNHYTQKSLSLSPGSGGGGSGGGGSQVQLQESGPGLVKPSQTLSLTCTVSGGSITSDYWNWIRQHPGNKLEYMGYISYTGSTYYNPSLKSRISITRDTSKNQFSLKLSSVTTADTAVYYCARYRDWDVRAMDYWGQGTTVTVSSGGGGSGGGGSGGGGSGGGGSDIVMTQSPDSLAVSLGEKVTMNCKSSQSLLISGNQKNFLTWYQQKPGQPPKLLIYWASTRESGVPDRFSGSGSGTDFTLTISSLQAEDEAVYYCQNDFGFPFTFGQGTKLTAK
light: DVVLTQSPLSLPVTLGQPASISCRSSQSLENSNGNTFLNWFQQRPGQSPRLLIYKVSNRFSGVPDRFSGSGSGTDFTLKISRVEAEDVGVYYCLQVTHVPFTFGQGTKLEIKRTVAAPSVFIFPPSDEQLKSGTASVVCLLNNFYPREAKVQWKVDNALQSGNSQESVTEQDSKDSTYSLSSTLTLSKADYEKHKVYACEVTHQGLSSPVTKSFNRGEC
notes: Asymmetric: knob chain with the 3C2VH6VL5 scFv, hole chain with the 56E5VH5VL4 scFv, linker 3 (long linker); also called MBS307-8-1 + MBS307-8-2
With B3, the “EC50 (read off the curve)” value in assay [8] was ~0.04 µg/mL; in [9], ~0.5 µg/mL.
